# Measured values reported in the supplement of paper PMC5998384.
# Key:
# HeLa Kyoto [1] = test: melting temperature (median over replicates), in situ; higher = more thermally stable
# HeLa Kyoto [2] = test: solubility change mitosis vs G1/S (difference of NP-40 vs SDS log2 ratios) (log2 ratio difference); higher = more soluble in mitosis
# HeLa Kyoto [3] = test: solubility in G1/S (NP-40 vs SDS abundance) (log2 ratio); higher = more soluble; settings: cell cycle stage: G1/S
# 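For melting temperature (median over replicates), in situ in this document: HeLa Kyoto cells synchronized by double thymidine or nocodazole block, proteins quantified by TMT10plex mass spectrometry, three independent biological replicates.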
# 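For solubility change mitosis vs G1/S (difference of NP-40 vs SDS log2 ratios) in this document: synchronized HeLa Kyoto cells (double thymidine block for G1/S, nocodazole release for mitosis), protein amounts in NP-40 versus SDS lysates quantified by mass spectrometry, three biological replicates.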
# 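For solubility in G1/S (NP-40 vs SDS abundance) in this document: HeLa Kyoto cells arrested at G1/S by double thymidine block, proteins quantified by TMT10plex mass spectrometry in mild NP-40 versus SDS extracts, three biological replicates.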
# Sequence of HAUS7 (chain, as listed by the source): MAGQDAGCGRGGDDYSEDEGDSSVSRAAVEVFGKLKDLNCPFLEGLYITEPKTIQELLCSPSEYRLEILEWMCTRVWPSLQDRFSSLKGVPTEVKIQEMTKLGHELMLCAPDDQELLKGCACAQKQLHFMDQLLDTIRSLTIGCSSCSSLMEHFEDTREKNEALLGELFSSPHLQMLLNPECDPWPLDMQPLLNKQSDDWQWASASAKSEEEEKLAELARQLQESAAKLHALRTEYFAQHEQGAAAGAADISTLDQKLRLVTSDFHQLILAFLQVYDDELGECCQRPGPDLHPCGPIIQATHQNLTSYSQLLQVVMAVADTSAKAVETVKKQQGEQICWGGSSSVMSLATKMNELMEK
Substance,melting temperature (HeLa Kyoto [1]; cell cycle stage: G1/S) [°C],melting temperature (HeLa Kyoto [1]; cell cycle stage: mitosis) [°C],solubility change mitosis (log2) (HeLa Kyoto [2]),solubility in G1/S (log2) (HeLa Kyoto [3])
MPVTHRKSDASDMNSDTSPSCRLRAFSRGGSLESRSSSSRSRSFTLDDESLKYLTHEEKDVLLFFEETIDSLDEDFEEPVLCDGGVCCLCSPSLEESTSSPSEPEDVIDLVQPAPGAGEAEGLPEGTQAAGPAPAGKEHRKQDAETPPPPDPPAPETLLAPPPLPSTPDPPRRELRAPSPPVEHPRLLRSVPTPLVMAQKISERMAGNEALSPTSPFREGRPGEWRTPAARGPRSGDPGPGPSHPAQPKAPRFPSNIIVTNGAAREPRRTLSRAAVSVQERRAQVLATIHGHAGAFPAAGDAGEGAPGGGSSPERVARGRGLPGPAESLRAGGQAPRGPALANGFPSAHEALKSAPSSFAPAGKSLCFRPGPALPSTRARQSFPGPRQPNGAQDWRRADSLPRPQGITVQFAGRGSSEEARREALRKLGLLRESS [PROSER2],48.6,51.3,-0.0862,0.405
HAUS7,50.7,,-0.0535,0.51
MSATRAKKVKMATKSCPECDQQVPVACKSCPCGYIFISRKLLNAKHSEKSPPSTENKHEAKRRRTERVRREKINSTVNKDLENRKRSRSNSHSDHIRRGRGRPKSASAKKHEEEREKQEKEIDIYANLSDEKAFVFSVALAEINRKIINQRLIL [C16ORF87],,50.6,0.198,0.019
MAICQFFLQGRCRFGDRCWNEHPGARGAGGGRQQPQQQPSGNNRRGWNTTSQRYSNVIQPSSFSKSTPWGGSRDQEKPYFSSFDSGASTNRKEGFGLSENPFASLSPDEQKDEKKLLEGIVKDMEVWESSGQWMFSVYSPVKKKPNISGFTDISPEELRLEYHNFLTSNNLQSYLNSVQRLINQWRNRVNELKSLNISTKVALLSDVKDGVNQAAPAFGFGSSQAATFMSPGFPVNNSSSDNAQNFSFKTNSGFAAASSGSPAGFGSSPAFGAAASTSSGISTSAPAFGFGKPEVTSAASFSFKSPAASSFGSPGFSGLPASLATGPVRAPVAPAFGGGSSVAGFGSPGSHSHTAFSKPSSDTFGNSSISTSLSASSSIIATDNVLFTPRDKLTVEELEQFQSKKFTLGKIPLKPPPLELLNV [NUPL2],,51.7,0.326,-0.304
MAAAAPNAGGSAPETAGSAEAPLQYSLLLQYLVGDKRQPRLLEPGSLGGIPSPAKSEEQKMIEKAMESCAFKAALACVGGFVLGGAFGVFTAGIDTNVGFDPKDPYRTPTAKEVLKDMGQRGMSYAKNFAIVGAMFSCTECLIESYRGTSDWKNSVISGCITGGAIGFRAGLKAGAIGCGGFAAFSAAIDYYLR [TIMM22],56,56.3,-0.0464,0.0827
MNVALQELGAGSNMVEYKRATLRDEDAPETPVEGGASPDAMEVGKGASPFSPGPSPGMTPGTPRSSGLFWRVTCPHLRSISGLCSRTMVGFQKGTRQLLGSRTQLELVLAGASLLLAALLLGCLVALGVQYHRDPSHSTCLTEACIRVAGKILESLDRGVSPCEDFYQFSCGGWIRRNPLPDGRSRWNTFNSLWDQNQAILKHLLENTTFNSSSEAEQKTQRFYLSCLQVERIEELGAQPLRDLIEKIGGWNITGPWDQDNFMEVLKAVAGTYRATPFFTVYISADSKSSNSNVIQVDQSGLFLPSRDYYLNRTANEKVLTAYLDYMEELGMLLGGRPTSTREQMQQVLELEIQLANITVPQDQRRDEEKIYHKMSISELQALAPSMDWLEFLSFLLSPLELSDSEPVVVYGMDYLQQVSELINRTEPSILNNYLIWNLVQKTTSSLDRRFESAQEKLLETLYGTKKSCVPRWQTCISNTDDALGFALGSLFVKATFDRQSKEIAEGMISEIRTAFEEALGQLVWMDEKTRQAAKEKADAIYDMIGFPDFILEPKELDDVYDGYEISEDSFFQNMLNLYNFSAKVMADQLRKPPSRDQWSMTPQTVNAYYLPTKNEIVFPAGILQAPFYARNHPKALNFGGIGVVMGHELTHAFDDQGREYDKEGNLRPWWQNESLAAFRNHTACMEEQYNQYQVNGERLNGRQTLGENIADNGGLKAAYNAYKAWLRKHGEEQQLPAVGLTNHQLFFVGFAQVWCSVRTPESSHEGLVTDPHSPARFRVLGTLSNSRDFLRHFGCPVGSPMNPGQLCEVW [ECE2],,50.7,-0.189,0.0962
MKDPSRSSTSPSIINEDVIINGHSHEDDNPFAEYMWMENEEEFNRQIEEELWEEEFIERCFQEMLEEEEEHEWFIPARDLPQTMDQIQDQFNDLVISDGSSLEDLVVKSNLNPNAKEFVPGVKYGNI [PAIP2],50.5,,-0.113,0.197
